Assay results reported in patent US11001846B2, “Aptamers, nucleic acid molecules, polynucleotides, synthetic antibodies compositions for detecting PRRS viruses and treating PRRS virus infection” (AEROVIRUS TECHNOLOGIES INC., priority 2015, dated 2021).
“Also recorded” adds a separate entry of the source.

How the values were obtained:
LHVA-93-3 PRRS virus = test: In-vivo lung virus titer, LHVA-93-3, comparison with control oligonucleotide and Tilmicosin (Example 4); design: species or system swine; settings: for change in lung virus titer: LHVA-93-3, FIG. 13b
Protocol: Swine were inoculated intranasally with sub-lethal infectious fluid containing 40TCID50/ml PRRS virus (LHVA-93-3) with or without 2.5 nmole A505 aptamer for different time intervals. Pig body weight was monitored for 2 weeks. Viral titer in the lungs was determined by the CPE titration method (OIE Terrestrial Manual—May 2015, Chapter 2.8.7—Porcine Reproductive and Respiratory Syndrome, section 1.1.3). Other pigs were sacrificed 6 days following viral inoculation and lungs were removed and homogenized in PBS 0.1% BSA (10% w/v). Following homogenization, samples were centrifuged to remove debris and stored at −80° C.
The cells/viruses were incubated for 2-5 days and observe daily for a CPE. At day 2, seed macrophages in new microtitre plates. Fifty (50) μl of the supernatants were transferred from the plates of the first passage to the corresponding wells of the freshly seeded plates (second passage). The wells were incubated for 2-5 days and observed daily for a CPE. The results of the CPE assays were presented as log TCID50.
Tilmicosin (Pulmotil®) was purchased from Eli Lilly (Elanco®), Canada.
Were implemented as described hereinabove. A dose of 15 ug/Kg of A505 was used.
The ability of the A505 aptamer to inhibit PRRSV infection was also compared to that of one of the currently available “anti-PRRSV” drugs, the antibiotic Tilmicosin. To this end, both A505 and Tilmicosin were administered once, together with the virus, using the intra-nasal route. As is shown in Table 2 below, a dose of 60 mg/pig of Tilmicosin (1 mg/kg body weight) reduced virus titer by 0.42 log TCID50, representing a 2.6-fold reduction in virus burden. This is in comparison to a reduction by 1.21 log TCID50 affected by A505 in this particular experiment (over 10 fold reduction in virus burden).

[1] = tested on: M-S-S-GP5 peptidic complex; test: ELISA reverse screening: binding to M-S-S-GP5 peptidic complex, type 2; settings: type 2 PRRSV complex
Protocol: (§1) ssDNA aptamers were denatured at 80° C. for 10 min and then cooled on ice for 10 min. Aptamers (30 nmole) were mixed with 25 μg of M-S-S-GP5 peptidic complex (further described in Example 6 below) in 500 μl selection buffer (50 mM Tris-HCl; pH 7.4, 5 mM KCl, 100 mM NaCl, 1 mM MgCl2 tRNA, 0.2% BSA) at 37° C. for 30 min. Aptamer-peptide complex was purified by adding the 25 μl Ni-NTA superflow and amplified by PCR using primers directed to the common T3 sequences in the aptamer library, and 3′-primer (i.e. -[…]-3′). SELEX was repeated 3 times, following which amplified nucleotides were transformed into E. coli. PCR conditions for SELEX included 5 min 95° C./1 min 95° C./1 min 55° C./1 min 72° C./10 min 72° C. and 100 pmole of each primer.
(§2) Selected ssDNA molecules from each individual clone were biotinylated using the B-T3 which is same sequence with 5′ primer (T3 primer), and Klenow fragment (2 unit/ml). To prepare single stranded biotin conjugated CoocSeq5 aptamer for the reverse screening, T3 Primer was Biotin labelled. A 96-well flat bottom ELISA plate was prepared by coating each well with 100 μl of streptavidin (100 μg/ml) diluted in 0.1 M NaHCO3 following by a 37° C. overnight incubation. Following several washings with PBS, wells were blocked with 200 μl of PBS containing 1% BSA for 2 hours at room temperature and subsequent washing three times with PBS-T (10 mM PBS containing 0.05% (v/v) Tween-20). […]
High binding capacity ELISA plates (Immunoplate, Nunc) were coated with 100 μl allantoic fluid containing 500 TCID50 of various PRRS virus strains diluted in phosphate buffered saline (PBS) by incubating at 4° C. overnight. […] Following this incubation period, plates were washed five times in PBS-T and bound antibodies were detected using horseradish peroxidase labelled goat anti-mouse IgG conjugates (HRP). […] Reaction was terminated with 50 μl of 2M H2SO4, plates were read with a multichannel spectrophotometer at 570 nm.

type 2 PRRSV = settings: after MTT screening of 10 candidates
Description: (§3) Using various tetrazolium (MTT) colorimetric assay procedures^[xxxvi], these aptamers have been “screened” to identify the ones having the highest and fastest binding capabilities for detection and therapeutics purposes for both types of PRRSV. It should be pointed out that the aptamer having the quickest binding efficiency but not necessarily the highest binding strength is the most suitable one for the biosensor.

[2] = tested on: intact PRRS virus (LHVA-93-3); test: ELISA binding to intact PRRS virus; design: species or system PRRSV; settings: vs control ssDNA or between aptamers, FIG. 8a
LHVA-3 PRRS virus = test: MTT assay, in vitro protection of PAMs or MARC-145 cells from LHVA-3 infection; assay type: cell-based, PRRSV; settings: 500 pmole; LHVA-3 and NVSL; FIG. 9b
Protocol: PAMs or MARC-145 cells were plated in 96 well plates (7×10^4/well) one day prior to the assay. […] Following infection, cells were incubated in growth medium at 37° C. for 72 hours. MTT assay was performed by adding 4 mg/ml MTT (3-[4,5-Dimethylthiazol-2-yl]-2,5-diphenyltetrazolium bromide dissolved in PBS to the cell cultures and incubation at 37° C. for 3 hours. Plates were then centrifuged at 800×g for 10 min. Supernatants were aspirated and the formazan dye was dissolved in 150 μl/well of isopropyl alcohol, and O.D. values were determined with an ELISA reader at 570 nm.
In Vitro Viral Protection Prior to Viral Infection PAMs or MARC-145 cells were plated on 96 well plates (7×10^4/well) 24 hours prior to the experiment. Each well was washed twice with DPBS prior to treating the cells with various amounts of A505 (12.5 to 2000 pmole) at 37° C. for the indicated time points. […] Following incubation, cells were transferred to growth medium and incubated at 37° C. for 72 hours. Thereafter an MTT assay was implemented as described.
In Vitro Viral Protection Following Viral Infection—PAMs or MARC-145 cells were plated on 96 well plates (7×10^4/well) 24 hours prior to viral infection. Viral infection was effected as described above. Infected cells were gently washed with DPBS for 3 times. Cells were then treated with various amounts of A505 (12.5 to 2000 pmole) for 1 hour at 37° C. Following incubation, cells were transferred to growth medium and incubated at 37° C. for 72 hours. Thereafter an MTT assay was implemented as described.

[3] = tested on: M-S-S-GP5 peptidic complex; test: ELISA reverse screening: binding to M-S-S-GP5 peptidic complex, type 1; design: species or system type 1 PRRSV (Lelystad); settings: type 1 PRRSV complex
Protocol: as §1
as §2, with “Tween-20). Thereafter, 100 μl of 2.5 pmole/100 μl biotinylated-ssDNA were added to the wells and incubated at 37° C. for 2 hours followed by washing four times with PBS-T. T3 primer was used as negative control. Following washing, 100 μl of fluid containing 2 μg histidine labelled M-S-S-GP5 peptidic complex were added to the indicated wells and incubated at 37° C. for 2 hours. The wells were then washed for 4 times with PBS-T. The reverse screening assay was completed by ELISA.” for “Tween-20).”

type 1 (Lelystad) PRRSV = settings: after MTT screening of 10 candidates
Description: as §3

With `CC[C@H]1OC(=O)C[C@@H](O)[C@H](C)[C@@H](O[C@@H]2O[C@H](C)[C@@H](O)[C@H](N(C)C)[C@H]2O)[C@@H](CCN2C[C@H](C)C[C@H](C)C2)C[C@@H](C)C(=O)/C=C/C(C)=C/[C@@H]1CO[C@@H]1O[C@H](C)[C@@H](O)[C@@H](OC)[C@H]1OC` [Tilmicosin, reference compound] the “Reduction Factor” value (LHVA-93-3 PRRS virus; Table 2, administered once with the virus, intra-nasal) was 2.6, the “Δ (log TCID50), reduction of virus titer” value (LHVA-93-3 PRRS virus; administered once together with the virus, intra-nasal, Tilmicosin 60 mg/pig (1 mg/kg), A505 15 ug/Kg) was 0.42 log TCID50 and the “reduction in virus burden” value (LHVA-93-3 PRRS virus; administered once with the virus, intra-nasal) was 2.6 fold.

B1: A507: ssDNA aptamer binding type 2 PRRSV M-S-S-GP5 complex (nucleic acid)
DNA: GGGCGACCCTGAAGAGGTTTGCATATTATAGTTATAGGAGGTGTGTAATGGACGAAACGGTGAAAGCCGTAGGTTGCCC
modifications: DNA, backbone and methylation of C not given here
B1 was tested, and the “binding to the M-S-S-GP5 complex/heterodimer” value [1] was “binding capacity to the M-S-S-GP5 complex; also recorded: found to bind the M-S-S-GP5 heterodimer” and the “binding capabilities from biosensing and therapeutic perspectives” value (from here on “binding capabilities”) (type 2 PRRSV) was “highest binding capabilities”.

B2: A508: ssDNA aptamer binding type 2 PRRSV M-S-S-GP5 complex (nucleic acid)
DNA: GGGCGACCCTGAAGAGACTGGTGAGTTAATGTTTTTTCTTAGCCTTGTATCGAAACGGTGAAAGCCGTAGGTTGCCC
modifications: DNA, backbone and methylation of C not given here
With B2 the “binding to the M-S-S-GP5 complex/heterodimer” value [1] was “highly significant differences from the control ssDNA; also recorded: binding capacity to the M-S-S-GP5 complex; also recorded: found to bind the M-S-S-GP5 heterodimer”, the “binding level to the intact virus” value [2] was “significant binding” and the “in-vitro infectivity of the viruses / cell mortality” value (LHVA-3 PRRS virus) was “capable of reducing the in-vitro infectivity of the viruses”. For the same molecule, the “change in lung virus titer” value (LHVA-93-3 PRRS virus) was “less effective than A505 was still capable of reducing the lung virus titer” and the “binding capabilities” value (type 2 PRRSV) was “highest binding capabilities”.

B3: PEU-499: ssDNA aptamer binding type 1 (Lelystad) PRRSV M-S-S-GP5 complex (nucleic acid)
DNA: GGGCGACCCTGAAGAGTACACACGGGACACACACACACTCACTAGACGAAACGGTGAAAGCCGTAGGTTGCCC
modifications: DNA, backbone and methylation of C not given here
B3 was tested, and the “binding to the M-S-S-GP5 complex/heterodimer” value [3] was “binding capacity to the M-S-S-GP5 complex; also recorded: found to bind the M-S-S-GP5 heterodimer” and the “binding capabilities” value (type 1 (Lelystad) PRRSV) was “good binding capabilities”.

B4: PEU-842: ssDNA aptamer binding type 1 (Lelystad) PRRSV M-S-S-GP5 complex (nucleic acid)
DNA: GGGCGACCCTGAAGAGGACCAGAAGCACGGACCACACACAGCGTATCGAAACGGTGAAAGCCGTAGGTTGCCC
modifications: DNA, backbone and methylation of C not given here
B4 was tested, and the “binding to the M-S-S-GP5 complex/heterodimer” value [3] was “binding capacity to the M-S-S-GP5 complex; also recorded: found to bind the M-S-S-GP5 heterodimer” and the “binding capabilities” value (type 1 (Lelystad) PRRSV) was “good binding capabilities”.

B5: PEU-852: ssDNA aptamer binding type 1 (Lelystad) PRRSV M-S-S-GP5 complex (nucleic acid)
DNA: GGGCGACCCTGAAGAGGACACTGCACGTACACAACGAGGATGAACACGAAACGGTGAAAGCCGTAGGTTGCCC
modifications: DNA, backbone and methylation of C not given here
For B5, the “binding to the M-S-S-GP5 complex/heterodimer” value [3] was “binding capacity to the M-S-S-GP5 complex; also recorded: found to bind the M-S-S-GP5 heterodimer” and the “binding capabilities” value (type 1 (Lelystad) PRRSV) was “good binding capabilities”.

B6: PEU-424: ssDNA aptamer binding type 1 (Lelystad) PRRSV M-S-S-GP5 complex (nucleic acid)
DNA: GGGCGACCCTGAAGAGGATGTTGATAGAGCGCCGACCACACACGCACGAAACGGTGAAAGCCGTAGGTTGCCC
modifications: DNA, backbone and methylation of C not given here
With B6 the “binding to the M-S-S-GP5 complex/heterodimer” value [3] was “binding capacity to the M-S-S-GP5 complex; also recorded: found to bind the M-S-S-GP5 heterodimer” and the “binding capabilities” value (type 1 (Lelystad) PRRSV) was “good binding capabilities”.

B7: PEU-962: ssDNA aptamer binding type 1 (Lelystad) PRRSV M-S-S-GP5 complex (nucleic acid)
DNA: GGGCGACCCTGAAGAGGATAGACAATAGCACACCACGCCCCTGCCACGAAACGGTGAAAGCCGTAGGTTGCCC
modifications: DNA, backbone and methylation of C not given here
With B7 the “binding to the M-S-S-GP5 complex/heterodimer” value [3] was “binding capacity to the M-S-S-GP5 complex; also recorded: found to bind the M-S-S-GP5 heterodimer” and the “binding capabilities” value (type 1 (Lelystad) PRRSV) was “good binding capabilities”.

B8: A501: ssDNA candidate aptamer for type 2 PRRSV M-S-S-GP5 complex; used as control irrelevant nucleotide in Example 4 (nucleic acid)
DNA: GGGCGACCCTGAAGAGAAAGGTGAGTTTATTGCGGGGGTTATTTATTGCTTCGAAACGGTGAAAGCCGTAGGTTGCCC
modifications: DNA, backbone and methylation of C not given here
B8 was tested, and the “change in lung virus titer” value (LHVA-93-3 PRRS virus) was “insignificant change in the viral titer”.
